Consider six molecules from patent US20230322953A1 (HARBOUR BIOMED SHANGHAI, published 2023).

Experiment [1] addresses T1, human BCMA (human, UniProt Q02223 1-184).
T1 construct: whole, on cells; also called hBCMA; TNFRSF17
T1 sequence (looked up): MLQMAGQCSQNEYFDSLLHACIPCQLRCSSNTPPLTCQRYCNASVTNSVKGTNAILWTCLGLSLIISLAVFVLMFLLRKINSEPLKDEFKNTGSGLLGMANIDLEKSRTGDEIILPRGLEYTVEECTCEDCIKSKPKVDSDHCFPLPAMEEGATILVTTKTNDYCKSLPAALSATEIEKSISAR
The experiment is described as follows: FACS on HEK293T/hBCMA cells, Experiment 3.

Experiment [2] concerns the target T1, human BCMA. The experiment is described as follows: FACS on HEK293T/hBCMA cells, Experiment 2.
Experiment [3] concerns the target T1, human BCMA. The experiment is described as follows: FACS on NCI-H929 cells.
Experiment [4] deals with T2, human PD-L1 on cells (CHO-K1/hPDL1; MDA-MB-231) (human, UniProt Q9NZQ7 19-290).
T2 construct: whole, on cells
T2 sequence (Q9NZQ7 19-290): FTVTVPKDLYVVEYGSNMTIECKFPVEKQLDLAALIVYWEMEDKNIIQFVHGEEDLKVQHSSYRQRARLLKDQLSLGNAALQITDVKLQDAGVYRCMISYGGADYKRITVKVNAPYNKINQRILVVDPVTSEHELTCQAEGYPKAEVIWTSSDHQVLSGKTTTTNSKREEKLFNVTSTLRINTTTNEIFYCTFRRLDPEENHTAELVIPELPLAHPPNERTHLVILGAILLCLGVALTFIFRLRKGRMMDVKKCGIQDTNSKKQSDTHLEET
The experiment is described as follows: FACS, CHO-K1/hPDL1 cells (Experiment 1).

Experiment [5] has as its target T3, human PD-L1-His protein (ACRO Biosystems, #PD1-H5229) (human, UniProt Q9NZQ7 19-238).
T3 construct: extracellular domain; bought; also called hPDL1-His; human PD-L1 extracellular domain recombinant protein
The experiment is described as follows: ELISA, coated hPD-L1-His. On the technique in general: ELISA stands for enzyme-linked immunosorbent assay.

Experiment [6] deals with T2, human PD-L1 on cells (CHO-K1/hPDL1; …). The experiment is described as follows: competition FACS: biotinylated PD-1 to CHO-K1/hPDL1 cells (Experiment 1).
For experiment [7], the target named is T4, cynomolgus monkey BCMA (cynomolgus monkey, UniProt A0A2K5UD97 1-183).
T4 construct: whole, on cells; also called cyno BCMA
T4 sequence (A0A2K5UD97 entry or part of it): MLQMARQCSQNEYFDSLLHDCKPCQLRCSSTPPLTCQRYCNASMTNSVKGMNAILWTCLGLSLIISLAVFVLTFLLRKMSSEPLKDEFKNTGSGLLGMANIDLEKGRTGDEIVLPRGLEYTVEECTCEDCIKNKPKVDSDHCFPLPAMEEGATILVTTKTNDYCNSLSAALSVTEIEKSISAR
The experiment in a line: FACS on HEK293T/cyno BCMA cells.

Values joined by “and” are separate entries in the source; they are usually repeats but may differ in a detail not shown here. Equal entries are not always repeated.

T3 sequence (Q9NZQ7 19-238): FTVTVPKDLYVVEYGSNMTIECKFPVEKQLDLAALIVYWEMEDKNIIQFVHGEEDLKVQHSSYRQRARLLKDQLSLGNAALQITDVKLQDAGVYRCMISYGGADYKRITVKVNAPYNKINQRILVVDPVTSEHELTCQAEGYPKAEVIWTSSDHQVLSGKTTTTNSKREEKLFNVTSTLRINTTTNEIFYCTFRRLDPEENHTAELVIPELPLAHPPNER

B1: PR002199 (bispecific antibody, human IgG1, kappa, L234A L235A)
chain 1: not shown
chain 2: EVQLVESGGGLVQPGRSLRLSCAASGFTFDDYAMHWVRQAPGKGLEWVSGISWNSGSIGYADSVKGRFTISRDNAKNSLYLQMNSLRAEDTALYYCAKDSRGYGDYRLGGAYWGQGTLVTVSSASTKGPSVFPLAPSSKSTSGGTAALGCLVKDYFPEPVTVSWNSGALTSGVHTFPAVLQSSGLYSLSSVVTVPSSSLGTQTYICNVNHKPSNTKVDKKVEPKSCDKTHTCPPCPAPEAAGGPSVFLFPPKPKDTLMISRTPEVTCVVVDVSHEDPEVKFNWYVDGVEVHNAKTKPREEQYNSTYRVVSVLTVLHQDWLNGKEYKCKVSNKALGAPIEKTISKAKGQPREPQVYTLPPCREEMTKNQVSLWCLVKGFYPSDIAVEWESNGQPENNYKTTPPVLDSDGSFFLYSKLTVDKSRWQQGNVFSCSVMHEALHNHYTQKSLSLSPGK
chain 3: EVQLLESGGGLVQPGGSLRLSCAASGFTVSSYGMSWVRQAPGKGPEWVSGIRGSDGSTYYADSVKGRFTISRDNSKNTLYLQMNSLRAEDTAVYYCAKQGENDGPFDHRGQGTLVTVSSGGGGSEVQLLESGGGLVQPGGSLRLSCAASGFTVSSYGMSWVRQAPGKGPEWVSGIRGSDGSTYYADSVKGRFTISRDNSKNTLYLQMNSLRAEDTAVYYCAKQGENDGPFDHRGQGTLVTVSSASEPKSSDKTHTCPPCPAPEAAGGPSVFLFPPKPKDTLMISRTPEVTCVVVDVSHEDPEVKFNWYVDGVEVHNAKTKPREEQYNSTYRVVSVLTVLHQDWLNGKEYKCKVSNKALGAPIEKTISKAKGQPREPQVCTLPPSREEMTKNQVSLSCAVKGFYPSDIAVEWESNGQPENNYKTTPPVLDSDGSFFLVSKLTVDKSRWQQGNVFSCSVMHEALHNHYTQKSLSLSPGK
notes: also called Positive control 2
Regarding B1, the concentration for a half-maximal effect (EC50) in experiment [1] came to 0.602 nM; in experiment [2], 1.13 nM; in experiment [3] it was 4.29 nM. The results for the “Maximum MFI” value in experiment [1], in experiment [2] and in experiment [3] were 117000, 17000 and 88200, respectively.

B2: PR000070, anti-PD-L1 91G3H5H3, hIgG1(N297A) (antibody, V domains shown)
VH: EVQLVESGGGLVQPGGSLRLSCAASGFTFSSYWMSWVRQAPGKGLEWVANIKQDGSEKYYVDSVKGRFTISRDNAKNSLYLQMNSLRAEDTAVYYCARDRAVAGAFDIWGQGTMVTVSS
VL: DIQMTQSPSTLSASVGDRVTVTCRASQSIYIWLAWYQQKPGKAPNLLIYKASSLETGVPSRFSGSGSGTEFTLTISSLQPDDFATYYCQQYYGSSRTFGQGTKVEIKR
In the case of B2, in experiment [4], the EC50 stood at 0.747 nM and the “Maximum MFI” value is 22700 MFI. Also, in experiment [5], the midpoint of the response, the EC50, lay at 0.146 nM and the “Maximum OD450” value worked out at 3.45 OD450. In experiment [6], the IC50 worked out at 0.725 nM and the “Maximum inhibition rate (%)” value is 96.8%.

B3: PR002309 (bispecific antibody, human IgG1, lambda, L234A L235A)
light: QAVVTQEPSLTVSPGGTVTLTCRSSTGAVTTSNYANWVQQKPGQAPRGLIGGTNKRAPWTPARFSGSLLGDKAALTLLGAQPEDEAEYFCALWYSNLWVFGGGTKLTVLGQPKAAPSVTLFPPSSEELQANKATLVCLISDFYPGAVTVAWKADSSPVKAGVETTTPSKQSNNKYAASSYLSLTPEQWKSHRSYSCQVTHEGSTVEKTVAPTECS
heavy: EVQLLESGGGLVQPGGSLRLSCAASGFTFSTYAMNWVRQAPGKGLEWVSRIRSKYNNYATYYADSVKDRFTISRDDSKSTLYLQMNSLRAEDTAVYYCVRHGNFGNSYVSWFAYWGQGTLVTVSSASTKGPSVFPLAPSSKSTSGGTAALGCLVKDYFPEPVTVSWNSGALTSGVHTFPAVLQSSGLYSLSSVVTVPSSSLGTQTYICNVNHKPSNTKVDKKVEPKSCDKTHTCPPCPAPEAAGGPSVFLFPPKPKDTLMISRTPEVTCVVVDVSHEDPEVKFNWYVDGVEVHNAKTKPREEQYNSTYRVVSVLTVLHQDWLNGKEYKCKVSNKALGAPIEKTISKAKGQPREPQVYTLPPCREEMTKNQVSLWCLVKGFYPSDIAVEWESNGQPENNYKTTPPVLDSDGSFFLYSKLTVDKSRWQQGNVFSCSVMHEALHNHYTQKSLSLSPGK
chain: EVQLVETGGGLIQPGGSLRLSCAASGFTVSDNYMTWVRQAPGKGLEWVSVIFSGGNTYYADSVKGRFTISRDNAKNTLYLQMNSLRAEDTALYYCARRNYDDTRGTDVFDIWGQGTMVTVSSRTGGGGSGGGGSGGGGSKLEVQLVETGGGLIQPGGSLRLSCAASGFTVSDNYMTWVRQAPGKGLEWVSVIFSGGNTYYADSVKGRFTISRDNAKNTLYLQMNSLRAEDTALYYCARRNYDDTRGTDVFDIWGQGTMVTVSSASEPKSSDKTHTCPPCPAPEAAGGPSVFLFPPKPKDTLMISRTPEVTCVVVDVSHEDPEVKFNWYVDGVEVHNAKTKPREEQYNSTYRVVSVLTVLHQDWLNGKEYKCKVSNKALGAPIEKTISKAKGQPREPQVCTLPPSREEMTKNQVSLSCAVKGFYPSDIAVEWESNGQPENNYKTTPPVLDSDGSFFLVSKLTVDKSRWQQGNVFSCSVMHEALHNHYTQKSLSLSPGK
With B3, the 50% effective concentration (EC50) in experiment [1] is 0.259 nM; in experiment [2] it was 0.355 nM; in experiment [3] it was 1.73 nM and 1.34 nM. Moreover, the “Maximum MFI” value in experiment [1] worked out at 100000; in experiment [2], 15000.

B4: PR002895 (bispecific antibody, human IgG1, lambda, L234A L235A)
light: B3 light
heavy: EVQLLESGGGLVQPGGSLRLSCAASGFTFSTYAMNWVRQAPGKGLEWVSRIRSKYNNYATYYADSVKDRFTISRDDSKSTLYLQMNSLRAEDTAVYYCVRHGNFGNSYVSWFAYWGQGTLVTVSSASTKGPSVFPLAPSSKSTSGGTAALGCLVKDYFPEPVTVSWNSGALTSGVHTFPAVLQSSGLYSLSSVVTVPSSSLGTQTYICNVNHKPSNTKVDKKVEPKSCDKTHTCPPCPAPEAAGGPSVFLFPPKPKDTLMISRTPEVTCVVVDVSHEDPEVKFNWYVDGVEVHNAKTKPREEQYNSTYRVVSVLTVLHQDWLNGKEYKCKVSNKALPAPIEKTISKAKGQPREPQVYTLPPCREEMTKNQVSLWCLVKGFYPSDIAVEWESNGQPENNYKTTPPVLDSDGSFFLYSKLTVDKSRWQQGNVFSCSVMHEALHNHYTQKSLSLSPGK
chain: EVQLVETGGGLIQPGGSLRLSCAASGFTVSDNYMTWVRQAPGKGLEWVSVIFSGGNTYYADSVKGRFTISRDNAKNTLYLQMNSLRAEDTALYYCARRNYDDTRGTDVFDIWGQGTMVTVSSGGGGSGGGGSGGGGSEVQLVETGGGLIQPGGSLRLSCAASGFTVSDNYMTWVRQAPGKGLEWVSVIFSGGNTYYADSVKGRFTISRDNAKNTLYLQMNSLRAEDTALYYCARRNYDDTRGTDVFDIWGQGTMVTVSSASEPKSSDKTHTCPPCPAPEAAGGPSVFLFPPKPKDTLMISRTPEVTCVVVDVSHEDPEVKFNWYVDGVEVHNAKTKPREEQYNSTYRVVSVLTVLHQDWLNGKEYKCKVSNKALPAPIEKTISKAKGQPREPQVCTLPPSREEMTKNQVSLSCAVKGFYPSDIAVEWESNGQPENNYKTTPPVLDSDGSFFLVSKLTVDKSRWQQGNVFSCSVMHEALHNHYTQKSLSLSPGK
Turning to B4, the EC50 in experiment [1] was 0.183 nM; in experiment [2] it was 0.385 nM; in experiment [3], 1.53 nM and 2.01 nM. For the same molecule, the “Maximum MFI” value is 93200 in experiment [1] and 14000 in experiment [2].

B5: PR002953 (bispecific antibody, human IgG1, lambda, L234A L235A)
light: B3 light
heavy: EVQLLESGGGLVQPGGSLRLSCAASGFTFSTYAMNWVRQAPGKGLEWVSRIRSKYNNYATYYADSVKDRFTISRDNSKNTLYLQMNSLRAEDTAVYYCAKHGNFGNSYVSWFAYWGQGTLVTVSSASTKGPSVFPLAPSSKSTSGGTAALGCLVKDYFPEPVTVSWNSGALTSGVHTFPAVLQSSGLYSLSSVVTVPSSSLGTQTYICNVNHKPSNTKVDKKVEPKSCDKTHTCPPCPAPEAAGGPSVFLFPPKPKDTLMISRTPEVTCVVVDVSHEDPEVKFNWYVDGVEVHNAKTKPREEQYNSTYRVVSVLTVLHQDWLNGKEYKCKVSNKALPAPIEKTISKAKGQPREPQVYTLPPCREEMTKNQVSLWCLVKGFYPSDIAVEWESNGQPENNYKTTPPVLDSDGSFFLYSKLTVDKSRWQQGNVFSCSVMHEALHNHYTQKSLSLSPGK
chain: B4 chain
As to B5, the EC50 was 0.226 nM in experiment [1]; 1.34 nM and 2.91 nM in experiment [3]. The “Maximum MFI” value in experiment [1] was determined as 91600; in experiment [2], 25200.

B6: PR003178 (bispecific antibody, human IgG1, lambda, L234A L235A)
light: B3 light
heavy: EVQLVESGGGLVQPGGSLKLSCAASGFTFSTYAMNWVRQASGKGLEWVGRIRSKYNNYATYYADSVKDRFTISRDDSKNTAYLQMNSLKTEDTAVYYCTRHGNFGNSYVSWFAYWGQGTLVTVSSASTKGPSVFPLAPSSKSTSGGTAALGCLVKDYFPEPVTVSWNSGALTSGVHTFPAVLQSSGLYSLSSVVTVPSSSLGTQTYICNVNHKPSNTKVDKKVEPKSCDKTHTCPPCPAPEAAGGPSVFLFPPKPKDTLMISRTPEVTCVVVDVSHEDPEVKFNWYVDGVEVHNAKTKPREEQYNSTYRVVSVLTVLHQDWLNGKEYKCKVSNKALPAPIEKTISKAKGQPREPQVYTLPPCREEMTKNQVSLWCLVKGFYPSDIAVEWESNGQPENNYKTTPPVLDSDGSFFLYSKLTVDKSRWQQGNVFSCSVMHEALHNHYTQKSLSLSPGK
chain: B4 chain
For B6, the EC50 came out at 0.188 nM in experiment [1] and 1.23 nM in experiment [3]. In addition, the “Maximum MFI” value is 99300 in experiment [1], 115000 in experiment [7] and 15600 in experiment [3].

As usually defined, the EC50 is the concentration at which the effect is half-maximal. One may read the IC50 as the concentration at which inhibition is half-maximal.
